Each block holds one substance with its values, some of them ahead of it.
Tests used:
P68135 = assay: depolymerisation of single filaments in a microfluidic flow (fluorescence microscopy); filaments grown from MgATP-actin, depolymerised in F-buffer (pH 7.8, 100 mM KCl, 1 mM MgCl2); velocities from an exponential fit of 1/vdepol against the age of F-actin, and from a direct fit of length …; conditions: other: depolymerisation of single filaments in a microfluidic flow (fluorescence microscopy)
[1] = biological target: Actin purified from rabbit muscle (rabbit) (UniProt P68135); assay: depolymerisation of single filaments in a microfluidic flow (fluorescence microscopy); filaments grown from MgATP-actin, depolymerised in F-buffer (pH 7.8, 100 mM KCl, 1 mM MgCl2); velocities from an exponential fit of 1/vdepol against the age of F-actin, and from a direct fit of length against time; room temperature
[2] = biological target: Actin purified from rabbit muscle (rabbit) (UniProt P68135); assay: depolymerisation of single filaments in a microfluidic flow (fluorescence microscopy); CrATP-actin filaments (as ADP-Pi-actin) depolymerising at different profilin concentrations; saturation curve of the off-rate fitted assuming profilin in rapid equilibrium with the barbed end; room temperature
[3] = biological target: Actin purified from rabbit muscle (rabbit) (UniProt P68135); assay: depolymerisation of single filaments in a microfluidic flow (fluorescence microscopy); MgADP-actin filaments depolymerising at different profilin concentrations; saturation curve of the off-rate fitted assuming profilin in rapid equilibrium with the barbed end; room temperature

Substance: Actin purified from rabbit muscle
- global depolymerization velocity of ADP-Pi-actin subunits at the barbed end (direct fit of length against time) (P68135): 1.5 subunits/s
- global depolymerization velocity of ADP-Pi-actin subunits at the barbed end (dissociation as ADP-Pi-actin, or Pi release and then dissociation; exponential fit) (P68135): 1.5±0.4 subunits/s

- depolymerization velocity of ADP-actin subunits at the barbed end (direct fit of length against time) [1]: 6 subunits/s
- depolymerization velocity of ADP-actin subunits at the barbed end (exponential fit) [1]: 6.2 subunits/s
Substance: Actin purified from rabbit muscle (from UniProt P68135 1-377) (natural protein)

- koff [2]: 4.7 s⁻¹
- koff [3]: 51.6 s⁻¹
Substance: profilin-actin (from UniProt P62962 1-140; P68135 1-377) (complex)

— PMC3181223
